The values that follow come from the supplement of paper PMC10567573.

B1: CCND2 (parent)
chain: YFKCVQKDIQPYMRRMVATWMLEV
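Further: lentivirally expressed fusions sorted by FACS into six bins by GFP to DsRed ratio, PSI derived from sequencing read proportions per bin multiplied by bin number.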

The variants in the series derive from B1. The series is described as follows: protein stability index of a GFP-peptide fusion (GPS, HEK-293T) (PSI 1-6); higher = more stable. Particulars: c terminus: a fixed tail appended.
Take YFKCVQKDIQPYMRRMVATWMLGV: the protein stability index is 3.51. On to YFKCVQKDIQPYMRRMVATWMLPV, for which the protein stability index turned out to be 3.09. Turning to YFKCVQKDIQPYMRRMVATWMLQV, the protein stability index was 2.13. The figure for YFKCVQKDIQPYMRRMVATWMLFV is 2.5; for YFKCVQKDIQPYMRRMVATWMLLV it is 3.11. For YFKCVQKDIQPYMRRMVATWMLYV the value was 3.34; for YFKCVQKDIQPYMRRMVATWMLRV, 2.96; for YFKCVQKDIQPYMRRMVATWMLAV, 1.78. The figure for YFKCVQKDIQPYMRRMVATWMLDV is 2.08; for YFKCVQKDIQPYMRRMVATWMLNV it is 2.39.

YFKCVQKDIQPYMRRMVATWMLEQ: the protein stability index worked out at 2.5. Take YFKCVQKDIQPYMRRMVATWMLET: the protein stability index worked out at 1.9.

Consider YFKCVQKDIQPYMRRMVATWMLEY, for which the protein stability index is 2.06.

On to YFKCVQKDIQPYMRRMVATWMLEC, for which the protein stability index worked out at 1.93. The figure for YFKCVQKDIQPYMRRMVATWMLED is 1.56; for YFKCVQKDIQPYMRRMVATWMLES it is 2.97; for YFKCVQKDIQPYMRRMVATWMLEP it is 1.91. For YFKCVQKDIQPYMRRMVATWMLEA the value was 2.41; for YFKCVQKDIQPYMRRMVATWMLEK, 1.63. YFKCVLKDIQPYMRRMVATWMLEV: the protein stability index was determined as 2.53. YFKCVEKDIQPYMRRMVATWMLEV: the protein stability index came out at 3.62. As for YFKCVDKDIQPYMRRMVATWMLEV, the protein stability index came out at 2.65.

Turning to YFKCVRKDIQPYMRRMVATWMLEV, the protein stability index was found to be 2.65.

Regarding YFKCVYKDIQPYMRRMVATWMLEV, the protein stability index came out at 2.64. For YFKCVVKDIQPYMRRMVATWMLEV the value was 1.79; for YFKCVNKDIQPYMRRMVATWMLEV, 1.9. Consider YFKCVTKDIQPYMRRMVATWMLEV, for which the protein stability index turned out to be 2.38.

YFKCVAKDIQPYMRRMVATWMLEV: the protein stability index amounted to 1.97. Take YFKCVQKDIQPYDRRMVATWMLEV: the protein stability index amounted to 2.8. Consider YFKCVQKDIQPYCRRMVATWMLEV, for which the protein stability index was determined as 2.43. As for YFKCVQKDIQPYGRRMVATWMLEV, the protein stability index is 2.58. Take YFKCVQKDIQPYIRRMVATWMLEV: the protein stability index was 3.3.

Turning to YFKCVQKDIQPYFRRMVATWMLEV, the protein stability index worked out at 3.07. For YFKCVQKDIQPYERRMVATWMLEV the value was 2.88; for YFKCVQKDIQPYRRRMVATWMLEV, 2.42; for YFKCVQKNIQPYMRRMVATWMLEV, 2.16. Take YFKCVQKTIQPYMRRMVATWMLEV: the protein stability index amounted to 2.37. As for YFKCVQKGIQPYMRRMVATWMLEV, the protein stability index worked out at 3.98. Consider YFKCVQKLIQPYMRRMVATWMLEV, for which the protein stability index was 2.05.

Take YFYCVQKDIQPYMRRMVATWMLEV: the protein stability index turned out to be 3.04.

For YFHCVQKDIQPYMRRMVATWMLEV, the protein stability index worked out at 3.13. On to YFCCVQKDIQPYMRRMVATWMLEV, for which the protein stability index amounted to 2.89. For YFPCVQKDIQPYMRRMVATWMLEV, the protein stability index came out at 2.33.

Regarding YFGCVQKDIQPYMRRMVATWMLEV, the protein stability index was 1.86. With YFVCVQKDIQPYMRRMVATWMLEV, the protein stability index came out at 3.12. The figure for YFICVQKDIQPYMRRMVATWMLEV is 2.78; for YFKCVQKDIQQYMRRMVATWMLEV it is 3.25. For YFKCVQKDIQWYMRRMVATWMLEV, the protein stability index was determined as 3.21.

In the case of YFKCVQKDIQNYMRRMVATWMLEV, the protein stability index was determined as 2.54. YFKCVQKDIQTYMRRMVATWMLEV: the protein stability index came out at 2.34. On to YFKCVQKDIQHYMRRMVATWMLEV, for which the protein stability index turned out to be 4.06. For the variant YFKCVQKDIQDYMRRMVATWMLEV, the protein stability index turned out to be 2.22. Regarding YFKCVQKDIQEYMRRMVATWMLEV, the protein stability index was found to be 2.85.

YFKCVQKDIQCYMRRMVATWMLEV: the protein stability index was found to be 2.36.

For the variant YFKCVQKDIQFYMRRMVATWMLEV, the protein stability index was 3.77.

For YFKCVQKDIQPYMRRAVATWMLEV, the protein stability index was found to be 3.12. Take YFKCVQKDIQPYMRRHVATWMLEV: the protein stability index worked out at 2.35. Regarding YFKCVQKDIQPYMRRKVATWMLEV, the protein stability index was 2.67. YFKCVQKDIQPYMRRTVATWMLEV: the protein stability index was found to be 3.51. For the variant YFKCVQKDIQPYMRRNVATWMLEV, the protein stability index turned out to be 1.51. Turning to YFKCVQKDIQPYMRRVVATWMLEV, the protein stability index is 2.3.

As for YFKCTQKDIQPYMRRMVATWMLEV, the protein stability index worked out at 3.62. For YFKCNQKDIQPYMRRMVATWMLEV, the protein stability index came out at 2.54.

YFKCCQKDIQPYMRRMVATWMLEV: the protein stability index is 2.36. As to YFKCMQKDIQPYMRRMVATWMLEV, the protein stability index was 2.48. The figure for YFKCGQKDIQPYMRRMVATWMLEV is 1.47; for YFKCSQKDIQPYMRRMVATWMLEV it is 1.43; for YFKCLQKDIQPYMRRMVATWMLEV it is 2.71. Regarding YFKCYQKDIQPYMRRMVATWMLEV, the protein stability index is 4. Take YFKCKQKDIQPYMRRMVATWMLEV: the protein stability index was 2.25.

Take YFKCAQKDIQPYMRRMVATWMLEV: the protein stability index amounted to 2.25.

As for YFKCVQQDIQPYMRRMVATWMLEV, the protein stability index amounted to 2.1. For YFKCVQWDIQPYMRRMVATWMLEV the value was 2.12; for YFKCVQNDIQPYMRRMVATWMLEV, 2.66; for YFKCVQDDIQPYMRRMVATWMLEV, 1.91. For YFKCVQFDIQPYMRRMVATWMLEV the value was 1.98; for YFKCVQSDIQPYMRRMVATWMLEV, 3.21; for YFKCVQYDIQPYMRRMVATWMLEV, 2.54. Turning to YFKCVQMDIQPYMRRMVATWMLEV, the protein stability index turned out to be 2.53. For YFKAVQKDIQPYMRRMVATWMLEV, the protein stability index was determined as 2.47. As to YFKHVQKDIQPYMRRMVATWMLEV, the protein stability index turned out to be 2.37. As to YFKYVQKDIQPYMRRMVATWMLEV, the protein stability index was 3.12. YFKQVQKDIQPYMRRMVATWMLEV: the protein stability index is 1.44. For YFKVVQKDIQPYMRRMVATWMLEV, the protein stability index is 3.69. For YFKGVQKDIQPYMRRMVATWMLEV, the protein stability index was found to be 2.21. As to YFKEVQKDIQPYMRRMVATWMLEV, the protein stability index came out at 1.28. Regarding YFKSVQKDIQPYMRRMVATWMLEV, the protein stability index is 3.14. On to YFKMVQKDIQPYMRRMVATWMLEV, for which the protein stability index was determined as 2.81. On to YFKCVQKDIQPYMRRMVATWMWEV, for which the protein stability index was 2.6. With YFKCVQKDIQPYMRRMVATWMPEV, the protein stability index came to 1.63.

Consider YFKCVQKDIQPYMRRMVATWMREV, for which the protein stability index was found to be 1.96.

Take YFKCVQKDIQPYMRRMVATWMAEV: the protein stability index stood at 3.01.

With YFKCVQKDIQPYMRRMVATWMVEV, the protein stability index came out at 2.94. The figure for YFKCVQKDIQPYMRRMVATWMGEV is 2.07.
